# Reference: the DeepSol protein solubility set
# Assay: soluble on expression in E. coli; label from the status in PepcDB or PDB records
row,Sequence,soluble on expression in E. coli
1,MEEKQILCVGLVVLDVISLVDKYPKEDSEIRCLSQRWQRGGNASNSCTVLSLLGAPCAFMGSMAPGHVADFLVADFRRRGVDVSQVAWQSKGDTPSSCCIINNSNGNRTIVLHDTSLPDVSATDFEKVDLTQFKWIHIEGRNASEQVKMLQRIDAHNTRQPPEQKIRVSVEVEKPREELFQLFGYGDVVFVSKDVAKHLGFQSAEEALRGLYGRVRKGAVLVCAWAEEGADALGPDGKLLHSDAFPPPRVVDTLGAGDTFNASVIFSLSQGRSVQEALRFGCQVAGKKCGLQGFDGIV,soluble
2,MEGIPGQRDGVYWLPPAEDGKDPATPWWLCSPLHVLAETRDASQSNWGRLLEWRDNDGHPHRWACPVEMLAASDTAEFRRELVRGGLTMSTSQKARQKLVDYVLSHRQAAATRLRCVSRIGWHDVRYVLPGEVHGEQDGEGVIYQGADSGDFDRAGTLQEWQTHIAAAAAGNSRIVFAISVAFAGVLADMAGESGGGFHFVGTTSKGKTSTLLDPAASVWGNPDQFAKKWRTTQNGLEGLCLGRNDNLLILDELAQIAPADAGGAAYLIANGQAKARMTKEGGNRPAHTWRVMLLSAGEIDLAQHMAEAGKSAKGGQIARLPAIPADAGAGMGTLEQLHQHPSGQAFADAMKAYSRQYYGTAGPAFLAALTPPECMDEIRRDIKDGVTGLIEYLGVPAGAAQEVGRVAARFALVAFAGELATRYGVTGWKPGEAVQAARRCFREWLAENHTGMAADDRALFAQVSGFMQTHSSTRFPPHDAAPEVLARYLNRAGFTFIDEQGTQQFWVLSEPFKKELCRGYTPLIAARSLLRAGWLLAGDTEGNTRRHTRKKRIKALDSATVNVYVLTSTVLEGEELEHHHHHH,not soluble
3,MLRNLILITLLVASGHGQTPVIGGTCKLGTADVQIGGKQTQFFLKCETTADSAEGEGVWVVKSRAAAAPSSVPSVPAENTQPQQHPKARKPASPNICEQDNGARESEVCAVSATCLQAHNDFPSSYLQCDQTTLRWVRKSCQENFLFNFEQQTCIVPKRMSSLSRQQASGLVCTFSSCSNSNPCSVGTCNNGYCCSSGSNSGSAIIVGGGSSNCVGCQNAPQIITIPQNSCPGGGYSVGGCSSGYCATGYSCIQNQCCPSYNSAPRISVYTCPSGGNAVGACMSGRCASGYTCSNNVCCPQTTTTNPFVCPDGTQAAGGCVNGQCGTGYTCSNGLCCAGTSTTVKCLDGSDAVGACIPSCTGDGCGGVQVSYYCGSGYTCTTGNICCPINSCPNGGEVLGPTINGLCPTGYTVQGNLCCSATCTDGSTGLPSVNGVCIDGYSLTNGVCCPASVTCTDEISIGPCTGTGFNGGCPAGYACDSNQVNCCPVVRYTDESCQVGPAIDGLCPPGYVVVYIPNSPLITNGVNPGTCIDLQCTTGLCLTANQIGDCDTATDAGTCPTGYTCFTNAGICCSTTTFSRLRIGNSRQMAQKPNYGRPLHSYMPPPRPIGARCQLDGECVGQAEGLSMCHAGVCQCSPIAYTQGIACVRRKSFQMNDDPVIDAANDDKSSSSVSV,not soluble
4,MSLEEQREILEQLKKTLQMLTVEPSKNNQIANEEKEKKENENSWCILEHNYEDIAQEFIDFIYKNPTTYHVVSFFAELLDKHNFKYLSEKSNWQDSIGEDGGKFYTIRNGTNLSAFILGKNWRAEKGVGVIGSHVDALTVKLKPVSFKDTAEGYGRIAVAPYGGTLNELWLDRDLGIGGRLLYKKKGTNEIKSALVDSTPLPVCRIPSLAPHFGKPAEGPFDKEDQTIPVIGFPSPDEEGNEPPTDDEKKSPLFGKHCIHLLRYVAKLAGVEVSELIQMDLDLFDVQKGTIGGIGKHFLFAPRLDDRLCSFAAMIALICYAKDVDTEESELFSTVTLYDNEEIGSLTRQGAKGGLLESVVERSSSAFTKKAVDLHTVWANSIILSADVNHLYNPNFPEVYLKNHFPVPNVGITLSLDPNGHMATDVVGTALVEELARRNGDKVQYFQIKNNSRSGGTIGPSLASQTGARTIDLGIAQLSMHSIRAATGSKDVGLGVKFFNGFFKHWRSVYDEFGELEGHHHHHH,soluble
5,MTILAIDTSNYTLGIALLREDTVIAEYITYLKKNHSVRAMPAVHSLLNDCDMAPQDLSKIVVAKGPGSYTGVRIGVTLAKTLAWSLDIPISAVSSLETLAANGRHFDGLISPIFDARRGQVYTGLYQYKNGLLEQVVPDQNVMLADWLEMLKEKDRPVLFLGHDTSLHKQMIEDVLGTKGFIGTAAQHNPRPSELAFLGKEKEAADVHGLVPDYLRLAEAEAKWIESQKLEHHHHHH,not soluble
6,MGSDKIHHHHHHMPPAKTQEFDPSRIKEPNSPSVITKAATLMDVLRTEGPTNSARLAEVLGEPISSVYRMLHTLTAIGWVEQDGKRGSYRVGLAMLTLAELQLRHMDLRKIAALTMRKIHALTGETTFLCVRHGIRAVCIERVDGDRVNSRVLQLGTSLPLHVGAAPRALLAFEGRRAWETYATNLGFEGHNWSKGPSRGELFQHLDEDRDKGFCLVDNEITPGIAAVGAPIYNHRGEVVASLSMSGLRDGILSDTTDYSAVELILQGSAEISQALGATIEHNGGNQKLPQVTPLSIVV,not soluble
7,GSGVDFYDVAFKVMLVGDSGVGKTCLLVRFKDGAFLAGTFISTVGIDFRNKVLDVDGVKVKLQMWDTAGQERFRSVTHAYYRDAHALLLLYDVTNKASFDNIQAWLTEIHEYAQHDVALMLLGNKVDSAHERVVKREDGEKLAKEYGLPFMETSAKTGLNVDLAFTAIAKELKRRSMKAP,soluble
8,MDHLDDLVDLYEYRVEDLLQGRTPKGGKQALLRLRQLLIQSRLPGPLAKRFRQADARFRAQRRALAPEAQAPVELPAIAVPEEPEPPPPEASPLAALALKVWRLQVERDVKARLEALLAGRREELRLIHAFLDNFALYRETPGFKRDFNLSRFVPTRPIPSLSDTLVDLDDPKVAQALVVDFLETARELPKLLPLPPEETRTYVRRFLNRLLEWEGAYNLPPKPDLPALRRALEEARRLGAGEKEVAQLEERLRKAAQEARRRDLLLEEEKGRFRVALEKVVALLSLLPTPQGETPWPRVPEPGQEEEGLLTLRLAPGPVALGPLTLTLSHAGGTWYLGLEGEDHPLEDTLVLPWEDLEVWAVRENDLLHLRLEARSGLRLYELLAEGRLLAYLLHPGKDYAYLRLLRGLSTRLKGEFQAQAFGPALAEKYRKAPEEALQDFARKGLELTLKRLGQADPLPLLQEVGQALGLEAEAQTLGQALREYLGRRPPTRETLGGEVHFLALTPEPQALKLDQHVLSVRLKEDAVYLGQAGEVPRRLKDLLVYRLGERALVLAREGRRLAYTLLPLP,soluble
9,MSLATMQDVATLAGVAPMTVSNCYRVPDKVHPQTLARVLEAAAKLGYTRNRIAGNLASGRSQVVGVLVPSLENSNFIGMIQGLEDRLHQLDHQLMLAVTPTADRELDSIRTFIERRIDGVVLTDVQHSRDTVDLLRNARLPTVETWSLKGPFIDMGVGFSLYDAAFDMTNLMIEAGYRRIGFAGFTPASTERFLERQRGFEDALRRANLRHDVHAYTEQSEGFAGGRITLNALLREEPELDGVFCGTDILAAGMIFECMRRGWRVPGRIGIAGYGNYQIASEITPKLTTVATPGYEMGVAAAEMLVGRLVGAAPAPVIRDVGYRLISGASEGHHHHHH,not soluble
10,MVELCELHMMPEEDQWPDDIDARIAALNFCGEDSMLFESVDPSVSTDSLDSQQFRERCQMKKEDFQLAFADSGHWQSGINDNLTTWGRIRTSEPLDERTASAPDVWNVKRSDSARSPNRPNSLIANFVSGDATRFVDVNDNEIREANEEIIRKDRWRRDSARRCSSGGQNQKRTFADILEKNVTAPTSMAITSSDNEKPPKLDFLAMHHEMPSLCESFTASFRDAIIKMQKCEPLPSITSTNDFPLFFQEDSPDSGLGCSGPSHIEDWQSLSVLLPKHVAEACSFFKSNTQLLTSSTSKTAPQTSTNIVSNCIDRRISGISASANEACRTCYRVRRRIHPPVWAQTAQSKTVLCDCASTPTDTNFSFAPTTSTTRHQLRAKELSIVGLPIYAAKRTLVENVVEGVAAISRGDGSDLLVIAMRCLIEDGLQENVSAWTMIQTVTSKGPATKDVHSIVKQLEECSKTDNVKVEIFFEELIRENSLDCWLCYIVLKEKVLKTLYSENAFLLSASSEYRTLLWRMVDSLSLLPVIEARSDSVHQQFKSMQQWGGASRIASDSRVPKSSSFPARLSTAPSRRSRIPLSTSRISISSTTSTPRSARSPSTTSRIRVASIMGDFTLANFSLSDGEKVSVLSTRGGLARCVRLTTSHSKINNGVIPIEHLLFQ,not soluble
11,MAHHHHHHMLRLTQAVLRVQSHQKKRAQHPNAGTRFGRVYNRGFVRYGFGGFGMSVYSSKKDRTFKVMPVPPPPPATTAVEQRDDFADNRGLSATTRTLSPTFRMFALEDGGVLVSHPSHAQIMRWNQRVHTEEGKAANSTVMDEYVNSRIQAIIADNTIENTSLSQWRKAHMWNVIKSHGKLQRRWGTPDFVMGARSTLYNN,not soluble
12,MSLKTVEEQAKNIYQLLEMVYGTSPWTLEQVLIDIRRDQTDYFLLYDHDKLLGFLAIQDLAGEVEMTQIAILPSHQELGLASQLMTHLDSIESDIFLEVRESNHRAQGLYQKFGFKFIGKRPDYYRNPIETALLMKREGKHDREGHHHHHH,soluble
13,GFGCPGNQLKCNNHCKSISCRAGYCDAATLWLRCTCTDCNGKK,soluble
14,MEKQQDLPFPYEFRELNPEEDKLVKANLGAFPTTYVKLGPKGYMVYRPYLKDAANIYNMPLRPTDVFVASYQRSGTTMTQELVWLIENDLNFEAAKTYMSLRYIYLDGFMIYDPEKQEEYNDILPNPENLDMERYLGLLEYSSRPGSSLLAAVPPTEKRFVKTHLPLSLMPPNMLDTVKMVYLARDPRDVAVSSFHHARLLYLLNKQSNFKDFWEMFHRGLYTLTPYFEHVKEAWAKRHDPNMLFLFYEDYLKDLPGCIARIADFLGKKLSEEQIQRLCEHLNFEKFKNNGAVNMEDYREIGILADGEHFIRKGKAGCWRDYFDEEMTKQAEKWIKDNLKDTDLRYPNMEL,soluble
15,SYVQDYRSPFIASVSDQHGVVYITENKNKTVVIPCLGSISNLNVSLCARYPEKRFVPDGNRISWDSKKGFTIPSYMISYAGMVFCEAKINDESYQSIMYIVVVVGYRIYDVVLSPSHGIELSVGEKLVLNCTARTELNVGIDFNWEYPSSKHQHKKLVNRDLKTQSGSEMKKFLSTLTIDGVTRSDQGLYTCAASSGLMTKKNSTFVRVHEKPFVAFGSG,soluble
16,ITTKRGEKGKVKINVKAGFDWNTPVKVPEYASGYDWARLANEARLGRYDSPIYTPEELEIIRSGLDTDLYPNIDWRDLMLKSGAPRYYANISFSGGSDNVRYYVSGQYTSEQGRYKTFSSENKYNTNTTYERYNYRANVDMNITKTTVLKVSVGGWLVNRTTPTRSTGDIWEDFAKFTPLSTPRKWSTGQWPRVDGQDTPEYHMTQRGYHTKWESKVETSVKLEQDLKFITPGLKFEGVFAFDTYNENIIKREKKEEVWEAQKYRDENGKLILKRVVNRSPMNQNKEVRGDKRYYFQASLDYNRLFAHAHRVGVFGMVYQEEKTDVNFDSSDLIGSIPRRNLAYSGRFTYAYKDKYLAEFNWGCTGSENFEHGKQFGFFPAVSAGYVISEEAFMKKALPWIDQFKIRASYGEVGNDVLDGRRFPYVSLIDTDDGGSYSFGEFGTNRVQAYRIRTLGTPNLTWEIAKKYDVGVDFSFFNGKISGALDWFLDKRDDIFMQRKHMPLTTGLADQTPMANVGKMKSYGWEGNIGFTQSIGQVNLQLRANFTYQTTDIIDKDEAANELWYKMDKGFQLNQSRGLIALGLFKDQDEIDRSPKQTSNRPILPGDIKYKDVNGDGVINDDDIVPLGYREVPGLQYGVGLSANWRNWNLSVLFQGTGK,not soluble
17,MSLSYVHTEIQNDALYITLDYPEKKNGLDAELGTSLLEAIRAGNNETSIHSIILQSKHRAYFSSGPRLEDLLICASDQSDVRLREVLHVLNHCVLEIFTSPKVTVALINGYAYGGGFNMMLACDRRIALRRAKFLENFHKMGISPDLGASYFLPRIIGYEQTMNLLLEGKLFTSEEALRLGLIQEICENKQELQERVKNYLKAVSEGYVPAIAATKKLLKGKAAEELKQQLEQETEELVALFKQTEIKKRLEALVEGHHHHHH,soluble
